Measured values: the supplement of paper PMC10724198
± gives the standard deviation of the averaged measurements.

These sequences were tested on Saccharomyces cerevisiae (assay: protein stability index of tFT-peptide fusion (C-terminal peptide) (PSI (0-1 scale)); higher = more stable (slower turnover)). Settings: genetic background: wild type; temperature: 30 C.
Protocol: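 MPS profiling in S. cerevisiae of the tFT-X12 degron library: putative degron peptides plus stable controls, 12 aa, fused to the C-terminus of a sfGFP-mCherry timer. Cells are FACS-sorted into 8 mCherry/sfGFP bins and deep-sequenced. PSI runs from 0 (unstable) to 1 (stable). Backgrounds are wild type, das1Δ and doa10Δ at 30 °C, and wild type, das1Δ, cdc34-1 and cdc53-1 at 37 °C; 2-3 technical replicates each.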
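Also: PSI is a weighted mean of sequencing reads over stability bins, variants kept only with over 10 reads, mCherry proximal and sfGFP distal, peptide attached via GGGS linker.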

Sequence | protein stability index
FPVSSRSFSFIP | 0.656 ± 0.028
FRFYCGLVIANV | 0.377 ± 0.031
FSCLCLCVATSG | 0.219 ± 0.023
FSFSAFARFLVI | 0.255 ± 0.025
FSFSCFFFVLFV | 0.0703 ± 0.038
FSFSFYFALASF | 0.422 ± 0.0075
FTFLFPLRLLPL | 0.374 ± 0.009
FVFCGVVFLFLL | 0.326 ± 0.018
FVFIFIRVFFFR | 0.176 ± 0.011
FVFLVLGPYAMF | 0.341 ± 0.01
FVGVLVLCVCRC | 0.155 ± 0.025
FVLFCWFFCIVW | 0.226 ± 0.033
FVSFFRWLLVSI | 0.163 ± 0.015
FYAAILCLLFSC | 0.265 ± 0.021
GCDVWCLVLRMG | 0.435 ± 0.019
GCFVDRVYVVVV | 0.387 ± 0.022
GCLFASWPLAVC | 0.198 ± 0.016
GCSVSLCCVFVV | 0.282 ± 0.025
GCVGLSFCVWVG | 0.211 ± 0.018
GDSVRVIIFCLN | 0.136 ± 0.027
GEVLWAVLLVSC | 0.198 ± 0.038
GFFCFLYFVVMF | 0.187 ± 0.018
GFIRVRHLRSLC | 0.138 ± 0.015
GFSFFFIFWFFF | 0.339 ± 0.027
GFVCFIHLFLCF | 0.316 ± 0.0089
GFVVYLLLSYLF | 0.28 ± 0.019

Sequence | protein stability index
GGFHWCPSASRG | 0.6726 ± 0.0059
GGGGLRVVVWLV | 0.124 ± 0.018
GGRLGRAGGGGR | 0.6472 ± 0.0025
GGVVLVVVFCCV | 0.204 ± 0.029
GHFILFWVFCFM | 0.303 ± 0.023
GHSALWQVPRLM | 0.29 ± 0.0041
GLCGVVVGCWVR | 0.283 ± 0.021
GLDLLTKFSKEC | 0.33 ± 0.015
GLFFLCLLSMCF | 0.29 ± 0.029
GLNKGKYIKLYT | 0.486 ± 0.0097
GLSVLLTCIHFV | 0.176 ± 0.026
GNRDLVNTSVEG | 0.633 ± 0.033
GPVRSPPSPTPR | 0.66 ± 0.027
GQFVISVRFLYE | 0.417 ± 0.024
GRGVRLRVRLLL | 0.217 ± 0.006
GRVETIEFLFLR | 0.394 ± 0.044
GRWAFFTWLRWS | 0.177 ± 0.025
GSDGVGGTVLYA | 0.666 ± 0.023
GSLVLSCLMSRA | 0.438 ± 0.012
GTIFLIRVLLFG | 0.213 ± 0.023
GVARALFLWKAV | 0.317 ± 0.03
GVLTVVLQVGVV | 0.304 ± 0.02
GVMICLDLLLSV | 0.395 ± 0.017
GVVCCGFFFLVV | 0.41 ± 0.04
GWCLLRVLVLVW | 0.0811 ± 0.02
GYRRCCHFLFTL | 0.375 ± 0.029

Sequence | protein stability index
HHRLRQGLRRIN | 0.293 ± 0.0082
HPPPTLVPPHPR | 0.681 ± 0.019
HRLQFKGYPICA | 0.223 ± 0.025
HRPRPLLKLLAS | 0.0779 ± 0.044
HSRRRRPTPQSL | 0.64 ± 0.019
HVCKLAMFQWYF | 0.302 ± 0.02
ICIFWLITGLWL | 0.324 ± 0.013
IFLCRNGAVFIC | 0.0798 ± 0.016
IFRVTGFPIYIF | 0.233 ± 0.025
IGFSPSFQLYSA | 0.67 ± 0.016
IGILVTAVPVFD | 0.382 ± 0.021
IIAGVWFLEILG | 0.312 ± 0.022
IIGCIAICLMVN | 0.0451 ± 0.016
IKCVPLVWRLTV | 0.123 ± 0.02
IKIQPKKRISLI | 0.174 ± 0.043
ILAVMFEIYAIL | 0.228 ± 0.029
ILCYVWLVFSGF | 0.204 ± 0.032
INHVIHAKLRFS | 0.13 ± 0.03
ISSAGHNIRFLA | 0.129 ± 0.034
ISTRLALCACVC | 0.208 ± 0.017
IVRDTECGIFYR | 0.6662 ± 0.006
IVVWCGIRYSIR | 0.262 ± 0.029
KKKEILVYIIQE | 0.512 ± 0.077
KRLALVSCSICG | 0.351 ± 0.031
KRRKERIKIQQI | 0.168 ± 0.046
KVGPVLLLCRRS | 0.628 ± 0.028
